Test results from patent US20190015518A1, “DRUG DELIVERY COMPOSITIONS AND METHODS” (priority 2016, published 2019).

Columns and labels:
Type in all cases: in vivo
[1] = Pharmacokinetics in a healthy dog, oral sub-mucosa injection (SAAM II model)
Experimental: Pharmacokinetics of HA-Lys-Pt were determined in a healthy dog by Xenometrics LLC (Stillwell, Kans.). […] After each injection, 2-mL serum samples were collected at 0, 0.25, 1, 2, 6, 24, 48, 96, and 168 hours. […] The samples were frozen at −80° C. until ICP-MS analysis. Prior to analysis, serum and urine samples were diluted 250 and 500-fold using 1% HNO3, respectively. The platinum calibration curve contained 4 replicates of 6 concentrations (0, 1, 10, 20, 40, and 50 ppb). The internal standard was bismuth at 50 ppb.
The pharmacokinetics of the HA-Lys-Pt was measured using the serum and urine samples. The data was modeled using SAAM II software with a four compartmental model.
As indicated by the model, q1, q2, q3, and q4 represent the central blood compartment, the body/tissue compartment, the injection site, and the urine compartment, respectively. The syringe represents the dose that was given to the injection site compartment. The two red circles indicate the two sampling sources, the serum from the q1 (s1), and the urine from the q4 (s2). Furthermore, five transfer rate constants and one loss rate constant were applied to the model to link the compartments and their individual differential equations for data analysis and simulation. The assignment of rate constants and pharmacokinetic interpretation has been discussed previously. The calculated PK parameters including AUC, clearance, volume of distribution at steady state (Vss), elimination half-lives (te), and transfer rate constants, are listed in Table 3.

[2] = Hematology of a healthy dog given 1.5 mg/kg on day 1 and 2.0 mg/kg on day 70, sub-mucosa
Experimental: (§1) Before each dose, the dog was examined by clinical chemistry, hematology, and urinalysis. Additional examinations of clinical chemistry and hematology were performed on days 7, 14, and 42 after the first dose. Additional tests of urinalysis were performed on days 7 and 14 after the first dose. The potential drug-induced toxicities were monitored for 56 days after the second dose. Specifically, clinical chemistry and urinalysis were performed on days 7, 14, 21, and 56, and hematology was performed on days 7, 14, and 56 after the second dose to evaluate the tolerability and toxicity of the formulation.
Hematology examinations were performed at pre- and post-dose for both injections. The injections were given via the sub-mucosa in the mouth.

[3] = Microscopic urinalysis of a healthy dog given 1.5 mg/kg on day 1 and 2.0 mg/kg on day 70, sub-mucosa
Experimental: as §1
Microscopic urinalyses were performed at pre- and post-dose for both injections. The injections were given via the sub-mucosa in the mouth.

HA-cis-[Pt(NH3)2(N^α-Acetyl-L-Lysine)] [75HA-Lys-Pt]
Clearance ([1]; 1st dose […]): 0.283 mL/min/kg | Tmax ([1]; 1st dose […]): 6 h | Vss ([1]; 1st dose […]): 7.4 L/kg | AUC ([1]; 2nd dose 2.0 mg/kg): 218 µg·h/mL | Clearance ([1]; 2nd dose 2.0 mg/kg): 0.153 mL/min/kg | Cmax ([1]; 2nd dose 2.0 mg/kg): 3437 ng/mL | Tmax ([1]; 2nd dose 2.0 mg/kg): 14.4 h | Vss ([1]; 2nd dose 2.0 mg/kg): 2.5 L/kg | Differential white blood cell count, % BASO ([2]; 2 mg/kg, 7 days after): 0.9% | Differential white blood cell count, % EOS ([2]; 2 mg/kg, 7 days after): 1.9% | Differential white blood cell count, % LUC ([2]; 2 mg/kg, 7 days after): 0.8% | Differential white blood cell count, % LYMPH ([2]; 2 mg/kg, 7 days after): 29% | Differential white blood cell count, % MONO ([2]; 2 mg/kg, 7 days after): 7.5% | Differential white blood cell count, % NEUT ([2]; 2 mg/kg, 7 days after): 60% | Hematocrit ([2]; 2 mg/kg, 7 days after): 38% | Hemoglobin ([2]; 2 mg/kg, 7 days after): 12.7 g/dL | Hemoglobin distribution width ([2]; 2 mg/kg, 7 days after): 1.84 g/dL | Mean corpuscular (cell) hemoglobin ([2]; 2 mg/kg, 7 days after): 21.9 pg | Mean corpuscular (cell) hemoglobin concentration ([2]; 2 mg/kg, 7 days after): 33.4 g/dL | Mean corpuscular (cell) volume ([2]; 2 mg/kg, 7 days after): 65.6 fL | Platelet count ([2]; 2 mg/kg, 7 days after): 36 10^3/μL | Red blood cell count ([2]; 2 mg/kg, 7 days after): 5.79 10^6/μL | Red cell distribution width ([2]; 2 mg/kg, 7 days after): 13.5% | Reticulocyte count ([2]; 2 mg/kg, 7 days after): 1.59% | White blood cell count ([2]; 2 mg/kg, 7 days after): 8.2 10^3/μL | Differential white blood cell count, % BASO ([2]; 2 mg/kg, 14 days after): 0.5% | Differential white blood cell count, % EOS ([2]; 2 mg/kg, 14 days after): 3.4% | Differential white blood cell count, % LUC ([2]; 2 mg/kg, 14 days after): 0.6% | Differential white blood cell count, % LYMPH ([2]; 2 mg/kg, 14 days after): 28.5% | Differential white blood cell count, % MONO ([2]; 2 mg/kg, 14 days after): 4.3% | Differential white blood cell count, % NEUT ([2]; 2 mg/kg, 14 days after): 62.7% | Hematocrit ([2]; 2 mg/kg, 14 days after): 35.6% | Hemoglobin ([2]; 2 mg/kg, 14 days after): 11.8 g/dL | Hemoglobin distribution width ([2]; 2 mg/kg, 14 days after): 2.33 g/dL | Mean corpuscular (cell) hemoglobin ([2]; 2 mg/kg, 14 days after): 21.6 pg | Mean corpuscular (cell) hemoglobin concentration ([2]; 2 mg/kg, 14 days after): 33.1 g/dL | Mean corpuscular (cell) volume ([2]; 2 mg/kg, 14 days after): 65.2 fL | Platelet count ([2]; 2 mg/kg, 14 days after): 232 10^3/μL | Red blood cell count ([2]; 2 mg/kg, 14 days after): 5.47 10^6/μL | Red cell distribution width ([2]; 2 mg/kg, 14 days after): 14.2% | Reticulocyte count ([2]; 2 mg/kg, 14 days after): 3.2% | White blood cell count ([2]; 2 mg/kg, 14 days after): 10.43 10^3/μL | Differential white blood cell count, % BASO ([2]; 2 mg/kg, 56 days after): 0.7% | Differential white blood cell count, % EOS ([2]; 2 mg/kg, 56 days after): 4.3% | Differential white blood cell count, % LUC ([2]; 2 mg/kg, 56 days after): 0.5% | Differential white blood cell count, % LYMPH ([2]; 2 mg/kg, 56 days after): 26.6% | Differential white blood cell count, % NEUT ([2]; 2 mg/kg, 56 days after): 63.4% | Hematocrit ([2]; 2 mg/kg, 56 days after): 36.9% | Hemoglobin ([2]; 2 mg/kg, 56 days after): 12.1 g/dL | Hemoglobin distribution width ([2]; 2 mg/kg, 56 days after): 2.04 g/dL | Mean corpuscular (cell) hemoglobin ([2]; 2 mg/kg, 56 days after): 21.4 pg | Mean corpuscular (cell) hemoglobin concentration ([2]; 2 mg/kg, 56 days after): 32.8 g/dL | Mean corpuscular (cell) volume ([2]; 2 mg/kg, 56 days after): 65.4 fL | Red blood cell count ([2]; 2 mg/kg, 56 days after): 5.64 10^6/μL | Red cell distribution width ([2]; 2 mg/kg, 56 days after): 13.7% | Reticulocyte count ([2]; 2 mg/kg, 56 days after): 1.3% | White blood cell count ([2]; 2 mg/kg, 56 days after): 11.3 10^3/μL | Differential white blood cell count, % BASO ([2]; […], 7 days after): 0.7% | Differential white blood cell count, % EOS ([2]; […], 7 days after): 2.0% | Differential white blood cell count, % LUC ([2]; […], 7 days after): 0.6% | Differential white blood cell count, % LYMPH ([2]; […], 7 days after): 37.6% | Differential white blood cell count, % NEUT ([2]; […], 7 days after): 55.4% | Hematocrit ([2]; […], 7 days after): 37.8% | Hemoglobin ([2]; […], 7 days after): 12.7 g/dL | Hemoglobin distribution width ([2]; […], 7 days after): 2.08 g/dL | Mean corpuscular (cell) hemoglobin ([2]; […], 7 days after): 23.0 pg | Mean corpuscular (cell) hemoglobin concentration ([2]; […], 7 days after): 33.6 g/dL | Mean corpuscular (cell) volume ([2]; […], 7 days after): 68.4 fL | Platelets (footnote a) ([2]; […], 7 days after): ^aPlatelets appear adequate. Platelet clumps observed, number not reported. | Red blood cell count ([2]; […], 7 days after): 5.53 10^6/μL | Red cell distribution width ([2]; […], 7 days after): 13.3% | Reticulocyte count ([2]; […], 7 days after): 1.40% | White blood cell count ([2]; […], 7 days after): 7.69 10^3/μL | Differential white blood cell count, % BASO ([2]; […], 14 days): 0.7% | Differential white blood cell count, % EOS ([2]; […], 14 days): 2.0% | Differential white blood cell count, % LUC ([2]; […], 14 days): 0.6% | Differential white blood cell count, % LYMPH ([2]; […], 14 days): 37.6% | Differential white blood cell count, % NEUT ([2]; […], 14 days): 55.4% | Hematocrit ([2]; […], 14 days): 38.2% | Hemoglobin ([2]; […], 14 days): 12.6 g/dL | Hemoglobin distribution width ([2]; […], 14 days): 2.29 g/dL | Mean corpuscular (cell) hemoglobin ([2]; […], 14 days): 22.6 pg | Mean corpuscular (cell) hemoglobin concentration ([2]; […], 14 days): 33.0 g/dL | Mean corpuscular (cell) volume ([2]; […], 14 days): 68.7 fL | Platelet count ([2]; […], 14 days): 307 10^3/μL | Red blood cell count ([2]; […], 14 days): 5.56 10^6/μL | Red cell distribution width ([2]; […], 14 days): 13.7% | Reticulocyte count ([2]; […], 14 days): 1.84% | White blood cell count ([2]; […], 14 days): 12.91 10^3/μL | Differential white blood cell count, % BASO ([2]; […], 42 days): 1.4% | Differential white blood cell count, % EOS ([2]; […], 42 days): 2.0% | Differential white blood cell count, % LUC ([2]; […], 42 days): 0.8% | Differential white blood cell count, % LYMPH ([2]; […], 42 days): 37.6% | Differential white blood cell count, % MONO ([2]; […], 42 days): 5.1% | Differential white blood cell count, % NEUT ([2]; […], 42 days): 53.1% | Hematocrit ([2]; […], 42 days): 46.4% | Hemoglobin ([2]; […], 42 days): 15.3 g/dL | Hemoglobin distribution width ([2]; […], 42 days): 1.71 g/dL | Mean corpuscular (cell) hemoglobin ([2]; […], 42 days): 22.4 pg | Mean corpuscular (cell) hemoglobin concentration ([2]; […], 42 days): 33.0 g/dL | Mean corpuscular (cell) volume ([2]; […], 42 days): 67.9 fL | Platelet count ([2]; […], 42 days): 307 10^3/μL | Red blood cell count ([2]; […], 42 days): 6.83 10^6/μL | Red cell distribution width ([2]; […], 42 days): 12.4% | White blood cell count ([2]; […], 42 days): 10.82 10^3/μL | Cast ([3]; 2 mg/kg, 7 days after): Rare triple | Trpl Ph Crystal ([3]; 2 mg/kg, 7 days after): Rare | urine Red Blood Cells ([3]; 2 mg/kg, 14 days after): 16-30 | Bac-U ([3]; 2 mg/kg, 21 days after): Few | Trpl Ph Crystal ([3]; 2 mg/kg, 21 days after): Rare triple | urine Red Blood Cells ([3]; 2 mg/kg, 21 days after): 1-5 | Bac-U ([3]; 2 mg/kg, 56 days after): Rare | Trpl Ph Crystal ([3]; 2 mg/kg, 56 days after): Few | urine Red Blood Cells ([3]; 2 mg/kg, 56 days after): TNTC | Bac-U ([3]; […], 7 days after): Moderate | Trpl Ph Crystal ([3]; […], 7 days after): Few | Bac-U ([3]; […], 14 days): Few
